Consider two substances from publication PMC10397321.

For orientation: stoichiometry N means a count of units in the complex or per binding partner.

The target of experiment [1] is photosystem I (PSI) monomer (Synechocystis sp. PCC 6803) (UniProt P29254). The experiment in a line: cryo-EM structure; native PSI3-IsiA18 supercomplex co-purified from Synechocystis sp. PCC 6803 membranes in DDM; 30 mM Tricine-NaOH pH 8, 75 mM NaCl, 0.02% DDM; 1.5 mg chlorophyll/ml; vitrified on holey carbon grids; C3 symmetry expansion and multibody refinement.
Sequence of photosystem I (PSI) monomer (Synechocystis sp. PCC 6803) (P29254 whole entry, looked up): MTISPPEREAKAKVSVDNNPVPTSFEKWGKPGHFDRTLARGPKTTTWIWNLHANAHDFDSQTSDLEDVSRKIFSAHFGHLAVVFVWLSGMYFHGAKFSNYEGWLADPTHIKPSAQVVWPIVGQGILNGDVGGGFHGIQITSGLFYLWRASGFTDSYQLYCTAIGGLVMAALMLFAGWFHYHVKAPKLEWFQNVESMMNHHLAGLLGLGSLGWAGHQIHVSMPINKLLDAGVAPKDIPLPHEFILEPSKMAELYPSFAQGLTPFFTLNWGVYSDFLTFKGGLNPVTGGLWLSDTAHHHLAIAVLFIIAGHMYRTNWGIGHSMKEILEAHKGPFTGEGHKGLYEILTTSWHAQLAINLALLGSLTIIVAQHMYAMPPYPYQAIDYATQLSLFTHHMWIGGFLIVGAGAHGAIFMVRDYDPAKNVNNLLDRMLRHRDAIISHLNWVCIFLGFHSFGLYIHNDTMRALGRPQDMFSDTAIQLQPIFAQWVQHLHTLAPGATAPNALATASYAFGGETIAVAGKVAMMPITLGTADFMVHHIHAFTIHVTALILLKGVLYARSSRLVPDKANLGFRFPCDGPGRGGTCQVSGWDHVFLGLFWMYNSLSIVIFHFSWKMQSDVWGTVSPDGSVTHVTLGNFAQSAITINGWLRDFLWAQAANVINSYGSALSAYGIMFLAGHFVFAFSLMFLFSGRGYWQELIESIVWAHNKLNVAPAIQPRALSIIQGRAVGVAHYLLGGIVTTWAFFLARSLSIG
Experiment [2] shares this target.

Sequence of iron-stressed induced protein A (IsiA) (Q55274 whole entry): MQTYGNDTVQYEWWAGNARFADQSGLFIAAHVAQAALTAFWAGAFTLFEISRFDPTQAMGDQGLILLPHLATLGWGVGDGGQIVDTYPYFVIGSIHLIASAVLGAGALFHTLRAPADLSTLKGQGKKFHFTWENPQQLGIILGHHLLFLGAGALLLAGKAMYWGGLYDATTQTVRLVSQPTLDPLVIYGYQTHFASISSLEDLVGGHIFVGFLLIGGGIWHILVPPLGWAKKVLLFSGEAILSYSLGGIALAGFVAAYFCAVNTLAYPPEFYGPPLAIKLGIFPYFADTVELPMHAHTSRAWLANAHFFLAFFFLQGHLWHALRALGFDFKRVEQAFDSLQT

In turn, “photosystem I (PSI) monomer (from UniProt P29254 1-751; P29255 1-731; P29256 24-165; Q55329 1-40; P72712 1-86) (complex)” returned a stoichiometry N in experiment [1] of 3.
In experiment [2], “iron-stressed induced protein A (IsiA) (from UniProt Q55274 1-342) (natural protein)” had a single-molecule fluorescence lifetime: share of complexes with bi-exponential decay at all intensity levels (partially coupled, population II) of 4%; a single-molecule fluorescence lifetime: share of complexes with fast mono-exponential decay at all intensity levels (continuously coupled) of 60%; a single-molecule fluorescence lifetime: share of complexes with mono-exponential levels interleaved with bi-exponential levels (transiently coupled, population I) of 36%.
